Measurements: paper PMC6037025

Target: CHIP (UniProt Q9UNE7)
Test: co-IP with anti-MYC-agarose, Western blot
Conditions: reference: Flag-IRS4 wild type; sites S859

binding against the reference: lost
Substance: IRS4 (from UniProt O14654) Flag-IRS4 S859A
